Measured values: US20230399390A1

Experiments:
[1] = biological target: human Nogo-A d20plus region (human aa position 543-866), recombinantly produced in E. coli (human) (UniProt Q9NQC3); assay: ELISA, coated d20plus (human, as read from the context), internal standard
[2] = biological target: rat Nogo-A (rat) (UniProt Q9JK11); assay: cell-based or functional assay
Sequence of rat Nogo-A (rat) (Q9JK11 whole entry): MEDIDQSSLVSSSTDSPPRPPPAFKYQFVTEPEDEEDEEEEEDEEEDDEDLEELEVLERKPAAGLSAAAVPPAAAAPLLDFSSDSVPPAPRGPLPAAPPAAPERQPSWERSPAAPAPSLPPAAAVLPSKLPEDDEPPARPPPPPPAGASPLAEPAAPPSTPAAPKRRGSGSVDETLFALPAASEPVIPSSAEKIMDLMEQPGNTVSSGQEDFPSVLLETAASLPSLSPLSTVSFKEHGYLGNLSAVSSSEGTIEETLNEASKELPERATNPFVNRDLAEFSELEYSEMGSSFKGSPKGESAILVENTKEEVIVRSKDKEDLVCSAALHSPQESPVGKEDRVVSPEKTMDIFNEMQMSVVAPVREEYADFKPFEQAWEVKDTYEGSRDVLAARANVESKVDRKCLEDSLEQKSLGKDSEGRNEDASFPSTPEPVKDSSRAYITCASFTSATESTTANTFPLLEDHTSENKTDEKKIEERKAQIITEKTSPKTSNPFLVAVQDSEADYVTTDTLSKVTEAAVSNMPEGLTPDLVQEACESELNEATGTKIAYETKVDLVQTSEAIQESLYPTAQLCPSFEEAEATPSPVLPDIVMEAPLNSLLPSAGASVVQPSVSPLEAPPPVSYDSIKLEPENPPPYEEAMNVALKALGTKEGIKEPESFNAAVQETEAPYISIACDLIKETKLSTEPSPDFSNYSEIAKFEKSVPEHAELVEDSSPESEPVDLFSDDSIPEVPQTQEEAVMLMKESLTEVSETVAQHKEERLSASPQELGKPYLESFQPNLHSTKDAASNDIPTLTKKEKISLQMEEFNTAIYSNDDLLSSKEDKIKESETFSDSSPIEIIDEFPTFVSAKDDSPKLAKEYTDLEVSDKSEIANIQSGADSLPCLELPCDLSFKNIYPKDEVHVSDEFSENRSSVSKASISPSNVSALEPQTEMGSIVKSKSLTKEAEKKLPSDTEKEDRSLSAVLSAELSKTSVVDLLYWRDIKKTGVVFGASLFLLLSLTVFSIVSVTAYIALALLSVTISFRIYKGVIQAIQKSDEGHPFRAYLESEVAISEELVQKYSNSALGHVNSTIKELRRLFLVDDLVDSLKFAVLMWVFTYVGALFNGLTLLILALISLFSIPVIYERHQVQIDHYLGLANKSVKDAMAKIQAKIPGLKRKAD

Sequence of human Nogo-A d20plus region (human aa position 543-866), recombinantly produced in E. coli (human) (Q9NQC3 543-866 limits assumed): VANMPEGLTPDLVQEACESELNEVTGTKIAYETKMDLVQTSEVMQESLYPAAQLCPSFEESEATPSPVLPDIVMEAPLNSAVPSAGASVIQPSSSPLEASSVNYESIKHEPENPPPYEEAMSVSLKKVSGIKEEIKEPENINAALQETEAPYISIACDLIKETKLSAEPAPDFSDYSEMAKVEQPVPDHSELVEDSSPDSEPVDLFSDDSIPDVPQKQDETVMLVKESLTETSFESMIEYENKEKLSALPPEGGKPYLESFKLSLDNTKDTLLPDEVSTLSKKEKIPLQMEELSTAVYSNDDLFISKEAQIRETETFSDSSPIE

murine monoclonal anti-Nogo-A antibody 11C7
EC50 [1]: 0.14 nM | IC50 for stimulating neurite outgrowth of N1E-115 cells in presence of rat CNS extract [2]: 19.3 nM
